# Measurements reported in patent US20190142971A1, “FORMULATION AND DELIVERY OF MODIFIED NUCLEOSIDE, NUCLEOTIDE, AND NUCLEIC ACID COMPOSITIONS” (ModernaTX, Inc., priority 2013, published 2019).
# B1: G-CSF: modified mRNA encoding human G-CSF, SEQ ID NO: 4, Cap1, fully modified with 5-methylcytosine and pseudouridine; LNP-formulated in Examples 16-22 (nucleic acid)
# chain: GGGAAAUAAGAGAGAAAAGAAGAGUAAGAAGAAAUAUAAGAGCCACCAUGGCCGGUCCCGCGACCCAAAGCCCCAUGAAACUUAUGGCCCUGCAGUUGCUGCUUUGGCACUCGGCCCUCUGGACAGUCCAAGAAGCGACUCCUCUCGGACCUGCCUCAUCGUUGCCGCAGUCAUUCCUUUUGAAGUGUCUGGAGCAGGUGCGAAAGAUUCAGGGCGAUGGAGCCGCACUCCAAGAGAAGCUCUGCGCGACAUACAAACUUUGCCAUCCCGAGGAGCUCGUACUGCUCGGGCACAGCUUGGGGAUUCCCUGGGCUCCUCUCUCGUCCUGUCCGUCGCAGGCUUUGCAGUUGGCAGGGUGCCUUUCCCAGCUCCACUCCGGUUUGUUCUUGUAUCAGGGACUGCUGCAAGCCCUUGAGGGAAUCUCGCCAGAAUUGGGCCCGACGCUGGACACGUUGCAGCUCGACGUGGCGGAUUUCGCAACAACCAUCUGGCAGCAGAUGGAGGAACUGGGGAUGGCACCCGCGCUGCAGCCCACGCAGGGGGCAAUGCCGGCCUUUGCGUCCGCGUUUCAGCGCAGGGCGGGUGGAGUCCUCGUAGCGAGCCACCUUCAAUCAUUUUUGGAAGUCUCGUACCGGGUGCUGAGACAUCUUGCGCAGCCGUGAAGCGCUGCCUUCUGCGGGGCUUGCCUUCUGGCCAUGCCCUUCUUCUCUCCCUUGCACCUGUACCUCUUGGUCUUUGAAUAAAGCCUGAGUAGGAAG
# modifications: Cap1, 5-methylcytosine, pseudouridine
# Key:
# [1] = system: mice; assay: Example 19A: LNP IV in mice, serum EPO/G-CSF ELISA (Table 36); format: in vivo
# Experimental: Formulations, listed in Table 33, were characterized by particle size, zeta potential, and encapsulation.
# LNP formulations, shown in Table 33 (above), were administered to mice (n=4) intravenously (IV) at a single modified mRNA dose 0.05 mg/kg or 0.005 mg/kg. There was also 3 control groups of mice (n=4) that were untreated. The mice were bled at 2 hours, 8 hours, 24 hours, 48 hours and 72 hours after they were administered with G-CSF or EPO modified mRNA formulations to determine the protein expression. Protein expression of G-CSF and EPO were determined using ELISA.
# [2] = system: non-human primates (cynomolgus monkey); assay: Example 22: NHP hematology: neutrophils, reticulocytes, HGB, HCT, RBC (Tables 40-44); format: in vivo; settings: for HCT / RBC: 0.005 mg/kg
# Experimental: LNP formulations, shown in Table 33 (above), were administered to non-human primates (NHP) (cynomolgus monkey) (n=2) as intravenous injection (IV). The NHP were administered a single modified mRNA IV dose of 0.5 mg/kg, 0.05 mg/kg or 0.005 mg/kg of G-CSF or EPO in a dose volume of 0.5 mL/kg. The NHPs were bled before dosing with the modified mRNA LNP formulations to determine protein expression in the serum and a baseline complete blood count. After administration with the G-CSF modified mRNA formulation the NHP were bled at 8, 24, 48 and 72 hours to determined protein expression. After administration with the EPO modified mRNA formulation the NHP were bled at 8, 24, 48, 72 hours and 7 days to determined protein expression.
# Samples collected from the NHPs after they were administered with G-CSF or EPO modified mRNA formulations were analyzed by ELISA to determine protein expression. Neutrophil and reticulocyte count was also determined pre-dose, 24 hours, 3 days, 7 days, 14 days and 18 days after administration of the modified G-CSF or EPO formulation.
molecule,measurement,setting,value
B1,EPO / G-CSF Serum Concentration,"[1]; 0.005 mg/kg, 2 hours","3,447.8 pg/ml"
same,EPO / G-CSF Serum Concentration,"[1]; 0.005 mg/kg, 8 hours","11,454.0 pg/ml"
same,EPO / G-CSF Serum Concentration,"[1]; 0.005 mg/kg, 24 hours","4,960.2 pg/ml"
same,EPO / G-CSF Serum Concentration,"[1]; 0.005 mg/kg, 48 hours",686.4 pg/mL
same,EPO / G-CSF Serum Concentration,"[1]; 0.05 mg/kg, 2 hours","20,951.4 pg/ml"
same,EPO / G-CSF Serum Concentration,"[1]; 0.05 mg/kg, 8 hours","70,012.8 pg/ml"
same,EPO / G-CSF Serum Concentration,"[1]; 0.05 mg/kg, 24 hours","19,356.2 pg/ml"
same,EPO / G-CSF Serum Concentration,"[1]; 0.05 mg/kg, 48 hours","1,963.0 pg/ml"
same,EPO / G-CSF Serum Concentration,"[1]; 0.05 mg/kg, 72 hours",47.3 pg/mL
same,Female NHP HGB,"[2]; 0.005 mg/kg IV, 14/18 days",129 g/L
same,Female NHP Neutrophils,"[2]; 0.005 mg/kg IV, 14/18 days",2.28 10^9/L
same,Male NHP HGB,"[2]; 0.005 mg/kg IV, 14/18 days",118 g/L
same,Male NHP Neutrophils,"[2]; 0.005 mg/kg IV, 14/18 days",4.31 10^9/L
same,Female NHP HGB,"[2]; 0.005 mg/kg IV, 24 hours",127 g/L
same,Female NHP Neutrophils,"[2]; 0.005 mg/kg IV, 24 hours",8.6 10^9/L
same,Male NHP HGB,"[2]; 0.005 mg/kg IV, 24 hours",117 g/L
same,Male NHP Neutrophils,"[2]; 0.005 mg/kg IV, 24 hours",16.44 10^9/L
same,Female NHP HGB,"[2]; 0.005 mg/kg IV, 3 days",127 g/L
same,Female NHP Neutrophils,"[2]; 0.005 mg/kg IV, 3 days",1.78 10^9/L
same,Male NHP HGB,"[2]; 0.005 mg/kg IV, 3 days",116 g/L
same,Male NHP Neutrophils,"[2]; 0.005 mg/kg IV, 3 days",3.74 10^9/L
same,Female NHP HGB,"[2]; 0.005 mg/kg IV, 7 days",129 g/L
same,Female NHP Neutrophils,"[2]; 0.005 mg/kg IV, 7 days",2.27 10^9/L
same,Male NHP HGB,"[2]; 0.005 mg/kg IV, 7 days",116 g/L
same,Male NHP Neutrophils,"[2]; 0.005 mg/kg IV, 7 days",7.28 10^9/L
same,Female NHP HGB,"[2]; 0.005 mg/kg IV, Pre-dose",129 g/L
same,Female NHP Neutrophils,"[2]; 0.005 mg/kg IV, Pre-dose",2.54 10^9/L
same,Male NHP HGB,"[2]; 0.005 mg/kg IV, Pre-dose",128 g/L
same,Male NHP Neutrophils,"[2]; 0.005 mg/kg IV, Pre-dose",1.52 10^9/L
same,HCT,"[2]; 14/18 days, Female NHP",0.42 L/L
same,RBC,"[2]; 14/18 days, Female NHP",5.34 10^12/L
same,HCT,"[2]; 14/18 days, Male NHP",0.41 L/L
same,RBC,"[2]; 14/18 days, Male NHP",5.37 10^12/L
same,HCT,"[2]; 24 hours, Female NHP",0.42 L/L
same,RBC,"[2]; 24 hours, Female NHP",5.35 10^12/L
same,HCT,"[2]; 24 hours, Male NHP",0.4 L/L
same,RBC,"[2]; 24 hours, Male NHP",5.34 10^12/L
same,HCT,"[2]; 3 days, Female NHP",0.41 L/L
same,RBC,"[2]; 3 days, Female NHP",5.24 10^12/L
same,HCT,"[2]; 3 days, Male NHP",0.4 L/L
same,RBC,"[2]; 3 days, Male NHP",5.32 10^12/L
same,HCT,"[2]; 7 days, Female NHP",0.42 L/L
same,RBC,"[2]; 7 days, Female NHP",5.34 10^12/L
same,HCT,"[2]; 7 days, Male NHP",0.39 L/L
same,RBC,"[2]; 7 days, Male NHP",5.25 10^12/L
same,HCT,"[2]; Pre-dose, Female NHP",0.42 L/L
same,RBC,"[2]; Pre-dose, Female NHP",5.36 10^12/L
same,HCT,"[2]; Pre-dose, Male NHP",0.42 L/L
same,RBC,"[2]; Pre-dose, Male NHP",5.67 10^12/L
same,Female NHP HGB,"[2]; 0.05 mg/kg IV, 14/18 days",123 g/L
same,Female NHP Neutrophils,"[2]; 0.05 mg/kg IV, 14/18 days",1.82 10^9/L
same,Male NHP HGB,"[2]; 0.05 mg/kg IV, 14/18 days",134 g/L
same,Male NHP Neutrophils,"[2]; 0.05 mg/kg IV, 14/18 days",3.59 10^9/L
same,Female NHP HGB,"[2]; 0.05 mg/kg IV, 24 hours",117 g/L
same,Female NHP Neutrophils,"[2]; 0.05 mg/kg IV, 24 hours",29.91 10^9/L
same,Male NHP HGB,"[2]; 0.05 mg/kg IV, 24 hours",122 g/L
same,Male NHP Neutrophils,"[2]; 0.05 mg/kg IV, 24 hours",19.92 10^9/L
same,Female NHP HGB,"[2]; 0.05 mg/kg IV, 3 days",115 g/L
same,Female NHP Neutrophils,"[2]; 0.05 mg/kg IV, 3 days",10.77 10^9/L
same,Male NHP HGB,"[2]; 0.05 mg/kg IV, 3 days",126 g/L
same,Male NHP Neutrophils,"[2]; 0.05 mg/kg IV, 3 days",7.49 10^9/L
same,Female NHP HGB,"[2]; 0.05 mg/kg IV, 7 days",116 g/L
same,Female NHP Neutrophils,"[2]; 0.05 mg/kg IV, 7 days",3.8 10^9/L
same,Male NHP HGB,"[2]; 0.05 mg/kg IV, 7 days",126 g/L
same,Male NHP Neutrophils,"[2]; 0.05 mg/kg IV, 7 days",4.13 10^9/L
